# B1: K125A/R128A: ZPI mutant of helix D residues (protein, UniProt Q9UK55 22-444, looked up, variant K125A R128A)
# Protein Z-dependent protease …: LAPSPQSPETPAPQNQTSRVVQAPKEEEEDEQEASEEKASEEEKAWLMASRQQLAKETSNFGFSLLRKISMRHDGNMVFSPFGMSLAMTGLMLGATGPTETQIKRGLHLQALKPTKPGLLPSLFAGLAETLSRNLELGLTQGSFAFIHKDFDVKETFFNLSKRYFDTECVPMNFRNASQAKRLMNHYINKETRGKIPKLFDEINPETKLILVDYILFKGKWLTPFDPVFTEVDTFHLDKYKTIKVPMMYGAGKFASTFDKNFRCHVLKLPYQGNATMLVVLMEKMGDHLALEDYLTTDLVETWLRNMKTRNMEVFFPKFKLDQKYEMHELLRQMGIRRIFSPFADLSELSATGRNLQVSRVLQRTVIEVDERGTEAVAGILSEITAYSMPPVIKVDRPFHFMIYEETSGMLLFLGRVVNPTLL
# B2: K284A: ZPI helix H site mutant (protein, UniProt Q9UK55 22-444, looked up, variant K284A)
# Protein Z-dependent protease …: LAPSPQSPETPAPQNQTSRVVQAPKEEEEDEQEASEEKASEEEKAWLMASRQQLAKETSNFGFSLLRKISMRHDGNMVFSPFGMSLAMTGLMLGATGPTETQIKRGLHLQALKPTKPGLLPSLFKGLRETLSRNLELGLTQGSFAFIHKDFDVKETFFNLSKRYFDTECVPMNFRNASQAKRLMNHYINKETRGKIPKLFDEINPETKLILVDYILFKGKWLTPFDPVFTEVDTFHLDKYKTIKVPMMYGAGKFASTFDKNFRCHVLKLPYQGNATMLVVLMEAMGDHLALEDYLTTDLVETWLRNMKTRNMEVFFPKFKLDQKYEMHELLRQMGIRRIFSPFADLSELSATGRNLQVSRVLQRTVIEVDERGTEAVAGILSEITAYSMPPVIKVDRPFHFMIYEETSGMLLFLGRVVNPTLL
# B3: K284A/R310A: ZPI helix H site double mutant (protein, UniProt Q9UK55 22-444, looked up, variant K284A R310A)
# Protein Z-dependent protease …: LAPSPQSPETPAPQNQTSRVVQAPKEEEEDEQEASEEKASEEEKAWLMASRQQLAKETSNFGFSLLRKISMRHDGNMVFSPFGMSLAMTGLMLGATGPTETQIKRGLHLQALKPTKPGLLPSLFKGLRETLSRNLELGLTQGSFAFIHKDFDVKETFFNLSKRYFDTECVPMNFRNASQAKRLMNHYINKETRGKIPKLFDEINPETKLILVDYILFKGKWLTPFDPVFTEVDTFHLDKYKTIKVPMMYGAGKFASTFDKNFRCHVLKLPYQGNATMLVVLMEAMGDHLALEDYLTTDLVETWLRNMKTANMEVFFPKFKLDQKYEMHELLRQMGIRRIFSPFADLSELSATGRNLQVSRVLQRTVIEVDERGTEAVAGILSEITAYSMPPVIKVDRPFHFMIYEETSGMLLFLGRVVNPTLL
# B4: K260A/R263A/R305A/K308A/R310A: ZPI helix H site quintuple mutant (protein, UniProt Q9UK55 22-444, looked up, variant K260A R263A R305A K308A R310A)
# Protein Z-dependent protease …: LAPSPQSPETPAPQNQTSRVVQAPKEEEEDEQEASEEKASEEEKAWLMASRQQLAKETSNFGFSLLRKISMRHDGNMVFSPFGMSLAMTGLMLGATGPTETQIKRGLHLQALKPTKPGLLPSLFKGLRETLSRNLELGLTQGSFAFIHKDFDVKETFFNLSKRYFDTECVPMNFRNASQAKRLMNHYINKETRGKIPKLFDEINPETKLILVDYILFKGKWLTPFDPVFTEVDTFHLDKYKTIKVPMMYGAGKFASTFDANFACHVLKLPYQGNATMLVVLMEKMGDHLALEDYLTTDLVETWLANMATANMEVFFPKFKLDQKYEMHELLRQMGIRRIFSPFADLSELSATGRNLQVSRVLQRTVIEVDERGTEAVAGILSEITAYSMPPVIKVDRPFHFMIYEETSGMLLFLGRVVNPTLL
# Tests used:
# Format in all cases: biochemical
# FXa [1] = target: T1, FXa (Homo sapiens, UniProt P00742); assay: H50 heparin-accelerated ZPI–FXa reactions: kinetics and stoichiometry of inhibition; conditions: for SI / ka,app × SI / ka,app × SI relative to WT: 1 μM H50; for ka,app: 1 μM H50, 2.5 mM CaCl2, pH 7.4, 25 °C; for H50 rate enhancement: ratio of heparin-accelerated to unaccelerated ka,app × SI
# T1 construct: purchased Enzyme Research Laboratories
# Procedure: Heparin accelerating effects on the kinetics of ZPI–FXa reactions were evaluated as a function of heparin concentration under pseudo–first-order conditions (i.e., with a large molar excess of inhibitor over protease) by incubating reaction mixtures of 100 μl containing 70 nM ZPI and ∼0.5 nM FXa in the absence or presence of varying levels of H50 ranging from 10^−9 to 10^−4 M in 20 mM Tris buffer (pH 7.4), 0.1 M NaCl, 0.1% PEG 8000, 0.1 mg/ml BSA, and 2.5 mM CaCl2 at 25 °C for reaction times of 2 to 5 min. Reactions were quenched by adding 1 ml of 50 μM Pefafluor FXa substrate (Centerchem, Inc) containing 50 μg/ml polybrene and 5 mM EDTA. The initial linear rate of substrate hydrolysis was monitored at an excitation wavelength of 380 nm and an emission wavelength of 440 nm. The observed pseudo–first-order rate constant for reactions (kobs) was calculated from the equation, kobs=In([vo-v∞]/[vt-v∞])/t
# where vt and v∞ are the initial velocities of protease hydrolysis of the substrate after reaction with ZPI for the fixed reaction time and after reaching the reaction end point, respectively, vo is the velocity measured in control reactions without ZPI, and t is the fixed reaction time. The dependence of kobs on heparin concentration was computer fit by nonlinear least squares analysis by the ternary complex bridging model equation ([10]).
# (§1) Apparent second-order rate constants for unaccelerated and H50-accelerated ZPI–FXa reactions were measured in the absence and presence of the optimal H50 concentration under pseudo–first-order conditions by analyzing full ZPI–FXa reaction progress curves over the ZPI concentration range of 10 to 900 nM with ∼0.5 nM FXa. Full reaction progress curves were also measured for ZPI–FXa reactions in the presence of PZ equimolar with ZPI, 25 μM lipid, and 5 mM CaCl2, as a function of the ZPI concentration in the range of 10 to 40 nM. Identical reaction mixtures were quenched at varying reaction times with substrate, and the time course of protease inactivation was measured from the decrease in initial rates of substrate hydrolysis. The first-order rate of decrease in protease activity with time was computer fit by a single exponential decay function with a nonzero end point and kobs obtained from the fitted exponential decay constant. Apparent second-order association rate constants (ka,app) were obtained from the slopes of linear plots of kobs versus the ZPI concentration according to the equation, kobs=kd+ka,app × [ZPI]0
# (§2) In which kd represents the rate constant for ZPI–FXa complex dissociation and [ZPI]o is the total ZPI concentration. kd was fixed at the experimentally determined value of 10^−4 s^−1 for WT and ZPI mutants as described ([18]).
# Fixed concentrations of FXa (50–100 nM FXa) were reacted with increasing concentrations of ZPI, ranging from a approximately threefold to sevenfold molar excess, in the absence of cofactors or in the presence of either 1 μM H50 or PZ equimolar with ZPI, 25 μM lipid, and 5 mM CaCl2, in kinetics buffer at 25 °C in reaction volumes of 50 μl. After allowing sufficient time to reach a reaction end point, based on measured second-order associate rate constants (∼5–30 min), remaining proteolytic activity was measured by reacting an aliquot (5–20 μl) of the reaction mixtures with 1 ml of 100 μM Spectrozyme fXa (American Diagnostica) containing 50 μg/ml Polybrene and 5 mM EDTA and monitoring the rate of absorbance change at 405 nm. The apparent SI was determined from the fitted abscissa intercept of a linear plot of residual protease activity against the molar ratio of inhibitor to protease ([18]). Because the ZPI–PZ complex dissociates to a small extent over the reaction time, apparent SIs depend on the time of incubation. To correct for such complex dissociation, apparent SIs were multiplied by the factor, exp (−kd × t), where kd is the measured complex dissociation rate constant of 10^−4 s^−1 and t the fixed reaction time. […]
# FXa [2] = target: T1, FXa; assay: Unaccelerated ZPI–FXa reactions: kinetics and stoichiometry of inhibition; conditions: for ka,app: absence of PZ, 2.5 mM CaCl2, pH 7.4, 25 °C
# Procedure: as §1, §2
# (§3) Fixed concentrations of FXa (50–100 nM FXa) were reacted with increasing concentrations of ZPI, ranging from a approximately threefold to sevenfold molar excess, in the absence of cofactors or in the presence of either 1 μM H50 or PZ equimolar with ZPI, 25 μM lipid, and 5 mM CaCl2, in kinetics buffer at 25 °C in reaction volumes of 50 μl. After allowing sufficient time to reach a reaction end point, based on measured second-order associate rate constants (∼5–30 min), remaining proteolytic activity was measured by reacting an aliquot (5–20 μl) of the reaction mixtures with 1 ml of 100 μM Spectrozyme fXa (American Diagnostica) containing 50 μg/ml Polybrene and 5 mM EDTA and monitoring the rate of absorbance change at 405 nm. The apparent SI was determined from the fitted abscissa intercept of a linear plot of residual protease activity against the molar ratio of inhibitor to protease ([18]). Because the ZPI–PZ complex dissociates to a small extent over the reaction time, apparent SIs depend on the time of incubation. To correct for such complex dissociation, apparent SIs were multiplied by the factor, exp (−kd × t), where kd is the measured complex dissociation rate constant of 10^−4 s^−1 and t the fixed reaction time. Simulations verified the validity of this correction for small extents of dissociation. Reported SIs are average values of at least two independent measurements at different reaction times.
# FXa [3] = target: T1, FXa; assay: PZ-accelerated ZPI–FXa reactions: kinetics and stoichiometry of inhibition; conditions: for SI / ka,app × SI / ka,app × SI relative to WT: PZ-accelerated; for ka,app: equimolar PZ, 25 μM phospholipid, 5 mM CaCl2, pH 7.4, 25 °C; for PZ enhancement: ratio of PZ-accelerated to unaccelerated ka,app × SI
# Procedure: as §1, §2, §3
# T1 sequence (P00742 235-488 limits assumed): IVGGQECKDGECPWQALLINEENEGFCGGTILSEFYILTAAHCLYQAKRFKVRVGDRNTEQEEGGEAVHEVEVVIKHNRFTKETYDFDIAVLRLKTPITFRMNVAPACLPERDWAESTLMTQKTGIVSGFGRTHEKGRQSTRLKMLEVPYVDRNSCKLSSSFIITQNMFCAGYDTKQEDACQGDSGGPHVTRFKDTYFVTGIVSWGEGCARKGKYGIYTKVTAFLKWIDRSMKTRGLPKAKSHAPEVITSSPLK
# T1 sequence (P00742 41-179 limits assumed): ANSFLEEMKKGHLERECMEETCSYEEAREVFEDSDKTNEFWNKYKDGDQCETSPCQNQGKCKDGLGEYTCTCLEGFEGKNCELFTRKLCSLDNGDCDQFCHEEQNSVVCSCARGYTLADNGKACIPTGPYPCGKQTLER
molecule,measurement,setting,value
B1,SI,FXa [1],4.9 ± 0.2 moles ZPI/mole FXa
same,"ka,app × SI",FXa [1],5.6 ± 0.8 × 10^5 M^−1 s^−1
same,"ka,app × SI relative to WT",FXa [1],(0.47)
same,"ka,app",FXa [1],1.2 ± 0.1 × 10^5 M^−1 s^−1
same,H50 rate enhancement,FXa [1],~89 fold
same,SI,FXa [2],1.7 ± 0.1 moles ZPI/mole FXa
same,"ka,app × SI",FXa [2],6.3 ± 0.3 × 10^3 M^−1 s^−1
same,"ka,app × SI relative to WT",FXa [2],(0.39)
same,"ka,app",FXa [2],3.7 ± 0.1 × 10^3 M^−1 s^−1
same,SI,FXa [3],5.6 ± 0.1 moles ZPI/mole FXa
same,"ka,app × SI",FXa [3],2.9 ± 0.2 × 10^7 M^−1 s^−1
same,"ka,app × SI relative to WT",FXa [3],(0.66)
same,"ka,app",FXa [3],5.2 ± 0.2 × 10^6 M^−1 s^−1
same,PZ enhancement,FXa [3],4603
B2,SI,FXa [1],2.4 ± 0.1 moles ZPI/mole FXa
same,"ka,app × SI",FXa [1],9.2 ± 0.9 × 10^5 M^−1 s^−1
same,"ka,app × SI relative to WT",FXa [1],(0.77)
same,"ka,app",FXa [1],3.9 ± 0.2 × 10^5 M^−1 s^−1
same,SI,FXa [2],2.3 ± 0.2 moles ZPI/mole FXa
same,"ka,app × SI",FXa [2],1.2 ± 0.2 × 10^4 M^−1 s^−1
same,"ka,app × SI relative to WT",FXa [2],(0.75)
same,"ka,app",FXa [2],5.0 ± 0.3 × 10^3 M^−1 s^−1
same,SI,FXa [3],3.3 ± 0.1 moles ZPI/mole FXa
same,"ka,app × SI",FXa [3],2.0 ± 0.1 × 10^7 M^−1 s^−1
same,"ka,app × SI relative to WT",FXa [3],(0.45)
same,"ka,app",FXa [3],6.2 ± 0.1 × 10^6 M^−1 s^−1
same,PZ enhancement,FXa [3],1733
B3,SI,FXa [1],1.9 ± 0.1 moles ZPI/mole FXa
same,"ka,app × SI",FXa [1],3.7 ± 0.4 × 10^5 M^−1 s^−1
same,"ka,app × SI relative to WT",FXa [1],(0.31)
same,"ka,app",FXa [1],2.0 ± 0.1 × 10^5 M^−1 s^−1
same,H50 rate enhancement,FXa [1],59 fold
same,SI,FXa [2],1.9 ± 0.2 moles ZPI/mole FXa
same,"ka,app × SI",FXa [2],6.3 ± 1.3 × 10^3 M^−1 s^−1
same,"ka,app × SI relative to WT",FXa [2],(0.39)
same,"ka,app",FXa [2],3.3 ± 0.3 × 10^3 M^−1 s^−1
same,SI,FXa [3],3.3 ± 0.1 moles ZPI/mole FXa
same,"ka,app × SI",FXa [3],2.1 ± 0.2 × 10^7 M^−1 s^−1
same,"ka,app × SI relative to WT",FXa [3],(0.48)
same,"ka,app",FXa [3],6.4 ± 0.4 × 10^6 M^−1 s^−1
same,PZ enhancement,FXa [3],3317
B4,SI,FXa [1],2.9 ± 0.4 moles ZPI/mole FXa
same,"ka,app × SI",FXa [1],4.9 ± 0.7 × 10^4 M^−1 s^−1
same,"ka,app × SI relative to WT",FXa [1],(0.04)
same,"ka,app",FXa [1],1.7 ± 0.1 × 10^4 M^−1 s^−1
same,H50 rate enhancement,FXa [1],6.5 fold
same,SI,FXa [2],2.9 ± 0.3 moles ZPI/mole FXa
same,"ka,app × SI",FXa [2],7.5 ± 0.9 × 10^3 M^−1 s^−1
same,"ka,app × SI relative to WT",FXa [2],(0.47)
same,"ka,app",FXa [2],2.6 ± 0.1 × 10^3 M^−1 s^−1
same,SI,FXa [3],4.5 ± 0.2 moles ZPI/mole FXa
same,"ka,app × SI",FXa [3],1.8 ± 0.1 × 10^7 M^−1 s^−1
same,"ka,app × SI relative to WT",FXa [3],(0.41)
same,"ka,app",FXa [3],3.9 ± 0.1 × 10^6 M^−1 s^−1
same,PZ enhancement,FXa [3],2400
